The target of the assay is T1, recombinant murine ACE2 (angiotensin-converting enzyme 2), extracellular domain (murine), Q8R0I0.
T1 chain: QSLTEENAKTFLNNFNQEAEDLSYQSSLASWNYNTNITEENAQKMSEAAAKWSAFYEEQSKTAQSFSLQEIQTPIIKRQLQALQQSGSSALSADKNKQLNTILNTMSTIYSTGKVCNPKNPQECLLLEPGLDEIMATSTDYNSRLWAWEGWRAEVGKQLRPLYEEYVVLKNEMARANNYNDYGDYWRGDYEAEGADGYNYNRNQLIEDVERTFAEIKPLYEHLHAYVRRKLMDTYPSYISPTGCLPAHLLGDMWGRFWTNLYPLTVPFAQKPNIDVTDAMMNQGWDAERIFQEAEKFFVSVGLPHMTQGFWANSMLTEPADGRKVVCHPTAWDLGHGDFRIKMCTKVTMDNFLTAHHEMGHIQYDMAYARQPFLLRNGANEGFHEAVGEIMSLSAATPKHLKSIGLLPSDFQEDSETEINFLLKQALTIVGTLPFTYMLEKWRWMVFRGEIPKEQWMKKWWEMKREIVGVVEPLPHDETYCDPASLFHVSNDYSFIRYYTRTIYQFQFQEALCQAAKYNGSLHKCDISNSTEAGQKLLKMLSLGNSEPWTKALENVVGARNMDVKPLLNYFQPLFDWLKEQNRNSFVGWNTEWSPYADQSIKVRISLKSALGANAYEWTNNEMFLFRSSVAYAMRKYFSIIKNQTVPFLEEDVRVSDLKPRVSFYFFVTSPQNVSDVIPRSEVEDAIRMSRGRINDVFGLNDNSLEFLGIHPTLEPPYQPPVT
The experiment in a line: native gel or EMSA; native PAGE, 2 ug protein on a precast native 3-12% gradient gel, Bis/Tris-Tricine buffers, 150 V for 80 min, Coomassie stain; single band at approximately 170 kDa; monomer to dimer. As to conditions: remark: other sources report otherwise.

B1: recombinant murine ACE2 (angiotensin-converting enzyme 2), extracellular domain, Q8R0I0 18-740 (enzyme)
chain: T1 chain
By stoichiometry N is commonly meant the number of molecules, sites or subunits per partner or assembly. As to B1, the stoichiometry N was 2.
